Positions count from the first letter of the chain named. Names may count otherwise.
T1: serum resistance-associated protein (SRA) from Trypanosoma brucei rhodesiense, recombinant SRA (SEQ ID NO: … (Trypanosoma brucei rhodesiense, UniProt O96637 31-274))
T1 construct: also called SRA protein
T1 sequence: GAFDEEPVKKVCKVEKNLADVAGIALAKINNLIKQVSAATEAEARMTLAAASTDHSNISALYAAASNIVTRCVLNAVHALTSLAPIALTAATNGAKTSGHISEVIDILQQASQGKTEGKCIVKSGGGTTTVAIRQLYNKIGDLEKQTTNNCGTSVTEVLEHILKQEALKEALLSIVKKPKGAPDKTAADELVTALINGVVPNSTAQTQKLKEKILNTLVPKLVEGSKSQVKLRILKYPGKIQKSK

T2: SRA.mmh
T2 construct: also called SRA.mmh (CHO)
T2 antigen: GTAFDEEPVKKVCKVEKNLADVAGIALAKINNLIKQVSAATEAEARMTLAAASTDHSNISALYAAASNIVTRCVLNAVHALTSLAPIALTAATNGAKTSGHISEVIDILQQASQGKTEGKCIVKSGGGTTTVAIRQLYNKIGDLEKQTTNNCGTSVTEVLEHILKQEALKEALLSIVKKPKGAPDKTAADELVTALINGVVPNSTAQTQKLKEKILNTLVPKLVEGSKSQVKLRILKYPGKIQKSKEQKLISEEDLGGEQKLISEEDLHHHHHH

B1: H2aM10204N (antibody, V domains shown)
VH: QVHLVQSGAEVKKPGSSVKVSCKASGGTFSNYAISWVRQAPGQGLEWMGGIIPFSGSATYAQNFQGRITITTDESTRTAYMELNGLRSEDTAVYYCARWFSGYGGDFDYWGQGTLVTVSS
VL: AIQMTQSPSSLSASVGDRVTITCRASQDIKNDLGWYQQKPGKAPKLLIYAASTLQSGVPSRFSGSGSGTHFTLTLSSLQPEDFATYFCLQDYTFPRTFGQGTKVEIK
notes: Chimeric antibody, human variable domains and mouse constant domains (mouse Fc, prefix H2aM); also called H2M10204N
B2: H2aM10285N (antibody, V domains shown)
VH: QVQLVQSGAEVKKPGSSVKVSCKASGGTFTNFAISWVRQAPGLGLEWMGGIIPFVGTATYEQKFQGRVSITADESTRTAYMELSSLRYDDTAVYYCARWFSGSGGDFDYWGQGTLVTVSS
VL: B1 VL with D28G, K30G, K39R, P40R, K42T, T53S, H70D, L75I, F87Y, Y92F
notes: Chimeric antibody, human variable domains and mouse constant domains (mouse Fc, prefix H2aM); also called H2M10285N
B3: H2bM10093N (antibody, V domains shown)
VH: EVQLVESGGGLVKPGGSLRLSCVASGFTLSGYSMNWVRQAPGKGLEWVSSISTSSSYIYYADSVQGRFTISRDNAKNSLYLQMNSLRAEDTAVYYCVRKGANWIYFDYWGQGTLVTVSS
VL: DIQMTQSPSSVSASVGDRVTITCRASQGISSLLAWFQQKPGKAPNLLIYAASSLQSGVPSRFSGSGSGTDFTLTISSLQPEDFATYYCQQAKSFPFTFGPGTKVDIK
notes: Chimeric antibody, human variable domains and mouse constant domains; also called H2aM10093N; H2M10093N
B4: H1H10041P (antibody, V domains shown)
VH: QVQLVQSGAEVRKPGSSMKVSCATSGGNFRSYTINWVRQAPGQGLEWMGGVFPAVGTRIYAQKFQGRVTISTDESTTIAYMELNSLVPEDTAVYYCARSFNSPFDFWDQGTLVTVSS
VL: AIQMTQSPSSLSASVGDRVTLTCRASQDIRNDLHWFQQTPGKAPRLLIYSASNLQSGVPSRFSGTGSGTDFTLTFSSLQPEDFATYYCLQDYSYPYTFGQGTKLEIK
notes: Fully human antibody with human IgG1 Fc (prefix H1H)
B5: H1H10067P (antibody, V domains shown)
VH: QVQLQESGPGLVKPSQTLSLTCIVSGGSISSGDYYWNWIRQHPGKGLEWIGDIYHSGDTYYNPSLKSRVTISLDTSKNQFSLKLSSLTAADTAVYYCARDRIVATGGGMDVWGQGTTVTVSS
VL: DIQMTQSPSTLSASVGDRVTITCRASQSISSWLAWYQRKPGKAPNLLIYRSSSLESGVPSRFSGSGSGTEFTLTISSLQADDFVIYYCQQYNSYPYTFGQGTKLEIK
notes: as for B4
B6: H1H10061P (antibody, V domains shown)
VH: QVQLVESGGGVVQPGNSLRLSCAASGFTFSAYGMHWVRQAPGKGLEWVAVISYDGSNEFYADSVKGRFTIFRDNSKNMLYLQMNSLRVEDTSIYYCAKDRGLGVYYFFYGMDVWGQGTTVTVSS
VL: DIVMTQSPDSLVVSLGERATINCKSSQSLLYSSSNNNYLTWYQQKPGRPPKLLIYWASTRESGVPDRFSGSGSGTDFTLTISSLQAEDVAIYYCQQNYITPLTFGGGTKVEIK
notes: as for B4
B7: H1H10069P (antibody, V domains shown)
VH: QVQLQESGPGLVKPSETLSLTCSVSGGSFTNYYWSWIRQPPGKGLEWIGSVFYSGTTNYNPSLQSRVTLSIETSKNQFSLRLNSVTAADTAVYYCARDQGAAALDYWGQGTLVTVSS
VL: DIQMTQSPSTLSASVGDRLTITCRASQSINNWLAWYQQKPGKAPKLLIYKASNLESGVPSRFSGSGSGTEFTLTISNLQPDDFATYYCQQYNSFFLTFGGGTKVEIK
notes: as for B4
B8: H1H10059P (antibody, V domains shown)
VH: QVQLVQSGAEVKKPGASVKVSCKAAGFTFIGYYIHWVRQAPGQGLEWMGWINSNSGDKDSAPKFQDRVTMTRDTSISTAYMELSRLRSDDTAVYFCAREGYNFGHFDYWGQGTLVTVSS
VL: DIVMTQTPLSSPVTLGQPASISCRSSQSLVHSDGNTYLSWLQQRPGQPPRLLIYKISNRLSGVPDRFSGSGAGTDFTLKISRVEGEDVGVYYCMQGTQFPRTFGQGTKVEIK
notes: as for B4
B9: apoL1 peptide (SEQ ID NO: 297) (peptide)
peptide: VYESKHLHEGAKSETAEELKKVAQELEEKLNILNNNYKILQADQEL
notes: Peptide of human apolipoprotein L1 used in the H/D exchange experiment

Target: T1, serum resistance-associated protein …
Experiment: SPR, mAb captured, 25C, pH 7.4
Procedure: (§1) Equilibrium dissociation constants (KD) values for SRA binding to selected purified anti-SRA monoclonal antibodies were determined using a real-time surface plasmon resonance biosensor assay on a Biacore T200 instrument. […] SRA binding to the captured monoclonal antibodies was monitored for 4 min while the dissociation of mAb bound SRA was monitored for 7 min. Two different assays formats were adopted to characterize kinetics of SRA binding—(i) regular kinetics and (ii) pH4.5 chase. Regular kinetics experiments were performed using pH7.4 buffer as the running buffer and both the association and dissociation was performed in pH7.4. For the chase format, association and dissociation were performed in pH7.4 buffer and pH4.5 buffer respectively.
(§2) Kinetic association (kₐ) and dissociation (kd) rate constants were determined by processing and fitting the data to a 1:1 binding model using Scrubber 2.0c curve fitting software. Only the dissociation rate (kd) was calculated for the pH4.5 chase experiment. Binding dissociation equilibrium constants (KD) and dissociative half-lives (t½) were calculated from the kinetic rate constants as:

Binder | Kd [nM] | kon [M⁻¹ s⁻¹] | t ½ [h]
B1 | ≤ 0.0899 | 556000 | ≥ 3.85
B2 | 0.138 | 1.03e+06 | 1.37
B3 | 0.948 | 521000 | 0.383
B4 | ≤ 0.0277 | 1.8e+06 | ≥ 3.85
B5 | ≤ 0.0557 | 897000 | ≥ 3.85
B6 | ≤ 0.0308 | 1.62e+06 | ≥ 3.85
B7 | ≤ 0.0785 | 636000 | ≥ 3.85
B8 | ≤ 0.0318 | 1.57e+06 | ≥ 3.85

Target: T1, serum resistance-associated protein …
Experiment: SPR, 25C, t1/2 pH 7.4 over pH 4.5
Procedure: as §1, §2

Binder | t ½ ratio pH 7.4/pH 4.5
B1 | ≥ 95
B2 | 124
B3 | 20
B4 | ≥ 1
B5 | ≥ 4
B6 | ≥ 2
B7 | ≥ 2
B8 | ≥ 6

Target: T1, serum resistance-associated protein …
Experiment: SPR, mAb captured, 50 nM SRA, pH 4.5, 25C

Binder | 50 nM SRA binding (RU)
B1 | 140
B2 | 120
B3 | 138
B4 | 88
B5 | 85
B6 | 79
B7 | 54
B8 | 73

Target: T1, serum resistance-associated protein …
Experiment: SPR, mAb captured, 25C, pH 7.4; pH 7.4, 25 C
Procedure: as §1, §2

Binder | koff [s⁻¹]
B3 | 0.000494

Target: T1, serum resistance-associated protein …
Experiment: H/D exchange MS, SRA-apoL1 peptide complex, pH 5.0

Binder | binding result
B9 | binds

Target: T1, serum resistance-associated protein …
Experiment: SPR, mAb captured, 25C, assoc. pH 7.4, dissoc. pH 4.5
Procedure: as §1, §2

Binder | t ½ [h]
B1 | 0.0333
B2 | 0.0117
B3 | 0.02
B4 | 2.75
B5 | 0.933
B6 | 1.82
B7 | 1.87
B8 | 0.617

Target: T1, serum resistance-associated protein …
Experiment: SPR, mAb captured, pH 4.5, 25C; competitor biotin-apoL1 peptide

Binder | 50 nM SRA + 5 uM apoL1 peptide binding (RU) | % Blocking, apoL1 peptide [%]
B1 | 3 | 98
B2 | 8 | 94
B3 | 4 | 97
B4 | 3 | 97
B5 | 98 | -16
B6 | -5 | 100
B7 | 62 | -13
B8 | -9 | 100

Target: T1, serum resistance-associated protein …
Experiment: SPR, mAb captured, pH 4.5, 25C; competitor biotin-mutant apoL1 peptide

Binder | 50 nM SRA + 5 uM mutant apoL1 peptide binding (RU) | % Blocking, Mutant apoL1 peptide [%]
B1 | 128 | 9
B2 | 111 | 8
B3 | 122 | 12
B4 | 83 | 5
B5 | 82 | 4
B6 | 75 | 5
B7 | 52 | 5
B8 | 65 | 11

Target: T2, SRA.mmh
Experiment: Octet, SRA.mmh captured on anti-Penta-His tips, mAb-1 at 50 ug/mL for 5 min, 25 C, pH 7.4

Binder | 50 ug/mL mAb 1 Bound (nm)
B1 | 1.46
B2 | 1.53
B3 | 1.48
B4 | 1.69
B5 | 1.52
B6 | 1.53
B7 | 1.61
B8 | 1.24

Target: T2, SRA.mmh
Experiment: Octet, mAb-2 at 50 ug/mL on captured SRA.mmh after negative control α-PRLR H1H6800P as mAb-1 (row 32 (-))

Binder | Binding of mAb-2 to SRA Pre-complexed with mAb-1
B1 | 1.08
B2 | 1.24
B3 | 1.32
B4 | 1.57
B5 | 1.41
B6 | 1.53
B7 | 1.37
B8 | 1.17

From patent US20150376269A1 (Regeneron, published 2015)
